Source: patent publication US20230272055A1, “ANTI-MUTANT CALRETICULIN (CALR) ANTIBODIES AND USES THEREOF” (Incyte Corporation, priority 2021, published 2023)
Changes are numbered by the printed parent chain. Read-outs that look alike come from different tables or passages of the source. Each block holds one binder with its values, some of them ahead of it.

Tests used:
[1] = target: Human Type 1 mutCALR (human); assay: cell-based or functional assay
[2] = target: human Type 1 mutCALR (52 bp deletion) (human)
[3] = target: human Type 1 mutCALR (52 bp deletion) (human); remark: listed apart in the source
[4] = target: human Type 1 mutCALR (52 bp deletion) (human); remark: listed apart in the source
[5] = target: human Type 1 mutCALR on Ba/F3 cells expressing MPL and Type 1 mutCALR (human); assay: cell-based or functional assay
[6] = target: human Type 1 mutCALR (52 bp deletion) (human); remark: listed apart in the source
[7] = target: human Type 1 mutCALR (52 bp deletion) (human); remark: listed apart in the source

Chain of Human Type 1 mutCALR (human) (chain, as listed by the source limits assumed): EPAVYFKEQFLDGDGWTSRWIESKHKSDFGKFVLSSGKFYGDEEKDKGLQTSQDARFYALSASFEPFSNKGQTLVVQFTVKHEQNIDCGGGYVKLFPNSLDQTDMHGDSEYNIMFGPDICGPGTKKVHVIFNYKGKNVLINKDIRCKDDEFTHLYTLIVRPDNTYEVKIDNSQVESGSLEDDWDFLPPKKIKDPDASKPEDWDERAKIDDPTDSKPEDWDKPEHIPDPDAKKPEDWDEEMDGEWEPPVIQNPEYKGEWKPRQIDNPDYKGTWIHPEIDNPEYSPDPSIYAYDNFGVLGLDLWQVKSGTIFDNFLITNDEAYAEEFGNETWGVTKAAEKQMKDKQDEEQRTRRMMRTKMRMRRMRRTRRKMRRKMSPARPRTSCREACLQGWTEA
Chain of human Type 1 mutCALR (52 bp deletion) (human) (chain, as listed by the source limits assumed, stated change not applied): as the sequence (chain, as listed by the source limits assumed) above
Chain of human Type 1 mutCALR on Ba/F3 cells expressing MPL and Type 1 mutCALR (human) (chain, as listed by the source limits assumed): as above

B1: AB3: anti-mutCALR antibody including the BJ095 VH region and the BJ097 VL region from WO2019178362 fused to human constant regions (antibody, human IgG1, kappa, V domains shown)
VH: QVQLVQSGAEVKKPGASVKVSCKASGYSFTGYYIHWVRQAPGQGLEWIGYISAYNGASSYNQKFKGRATFTVDTSISTAYMELSRLRSDDTAVYYCASSMDYWGQGTLVTVSS
VL: DVVMTQSPLSLPVTLGQPASISCKSSQSLLDSDGKTYLNWLQQRPGQSPKRLIYLVSKLDSGVPDRFSGSGSGTDFTLKISRVEAEDVGVYHCWQGTHFPYTFGQGTKLIEKR
- IC50 of inhibition of cell proliferation (BaF3 cells expressing MPL/mutCALR Type 1) [1]: > 60000 ng/mL

B2: anti-mutCALR antibody clone 68 (antibody, human IgG1, lambda, N297A, V domains shown)
VH: EVQLVQSGAEVKKPGASVKVSCKVSGYTLTELSMQWVRQAPGKGLEWMGGFDPDEGETMYAEKFQGRLTVTEDTSTDTVYMELRSLTSEDTALYFCATSPGYDFFDYWGQGTLVTVSS
VL: SYVLTQPPSVSVAPGKTARITCTGTSSDVGGYNYVSWYQQKPGQAPVLVVYEVSNRPSGIPERFSGSNSGNTATLTISRVEAGDEADYYCQVWDSSNDLLIFGGGTKLTVLG
- IC50 of inhibition of cell proliferation (Ba/F3 cells with MPL and mutCALR Type 1) [1]: 0.9 ng/mL
- IC50 of inhibition of MPL-LgBiT/MPL-smBiT dimerization (NanoBiT luminescence, percent of isotype) in transfected HAP1 JAK2-knockout cells [2]: 3.27 ng/mL

B4: anti-mutCALR antibody clone 128 (antibody, human IgG1, lambda, N297A, V domains shown)
VH: B2 VH with E55D, G56A
VL: SYELTQPPSVSVAPGKTARITCGGDNIGSKSVHWYQQKPGQAPVLVVYDDSDRPSGIPERFSGSNSGNTATLTINRVEAGDEADYYCQVWDSSNDLLIFGGGTKLTVLG
- IC50 of inhibition of cell proliferation (Ba/F3 cells with MPL and mutCALR Type 1) [1]: 9.8 ng/mL

B6: anti-mutCALR antibody clone 14 (antibody, human IgG1, lambda, V domains shown)
VH: B2 VH with E55D, T69A
VL: B4 VL with E3V, D25Y, S31F, Q36R, K38R, S51R, N75S
- IC50, inhibition of pSTAT5 [5]: 0.06 µg/mL

B7: anti-mutCALR antibody clone 184 (antibody, human IgG1, lambda, N297A, V domains shown)
VH: B2 VH with E55D, G56A
VL: B4 VL with E3V, K16Q, D25S, N26D, S29D, K30E, S31I, N75S, N94S, L96H
- IC50 of inhibition of cell proliferation (Ba/F3 cells with MPL and mutCALR Type 1) [1]: 1.9 ng/mL
- IC50 of inhibition of MPL-LgBiT/MPL-smBiT dimerization (NanoBiT luminescence, percent of isotype) in transfected HAP1 JAK2-knockout cells [6]: 3.77 ng/mL

B8: anti-mutCALR antibody clone 65 (antibody, human IgG1, lambda, N297A, V domains shown)
VH: B2 VH with E55D
VL: B2 VL
- IC50 of inhibition of cell proliferation (Ba/F3 cells with MPL and mutCALR Type 1) [1]: 0.3 ng/mL
- IC50 of inhibition of MPL-LgBiT/MPL-smBiT dimerization (NanoBiT luminescence, percent of isotype) in transfected HAP1 JAK2-knockout cells [7]: 3.27 ng/mL

B9: anti-mutCALR antibody clone 54 (antibody, human IgG1, kappa, V domains shown)
VH: QVTLKESGPGILKPSQTLSLTCSFSGFSLSTSGMGVGWIRQPSGKGLEWLAHIWWDDDKYYNPYLKNQVTISKDTSRNQVFLKITSVDTADTATYYCARSAYGSTYGYWGQGTTLTVSS
VL: DIVLTQSPASLAVSLGQRATISCKASQSVDYDGDSFMNWYQQKPGQPPKLLIYTASILESGIPARFSGSGSGTDFTLNIHPVEEEDAATYYCQQSNEDPWTFGGGTKLEIKR
- IC50, inhibition of pSTAT5 [5]: 12.7 µg/mL

More lines, now with the values ahead:

- IC50 of inhibition of MPL-LgBiT/MPL-smBiT dimerization (NanoBiT luminescence, percent of isotype) in transfected HAP1 JAK2-knockout cells [3]: 2.48 ng/mL
- IC50 of inhibition of cell proliferation (Ba/F3 cells with MPL and mutCALR Type 1) [1]: 4.6 ng/mL
B3: anti-mutCALR antibody clone 188 (antibody, human IgG1, lambda, N297A, V domains shown)
VH: B2 VH with R84S, T87R, L93V
VL: B4 VL with E3V, K16Q, D25S, N26D, S29D, K30E, S31I, N75S, N94S, L96H

- IC50 of inhibition of cell proliferation (Ba/F3 cells with MPL and mutCALR Type 1) [1]: 1 ng/mL
- Log IC50 of inhibition of cell proliferation, antibody + ruxolitinib (Ba/F3-TPOR/mutCALR type 1 cells) (Log IC50 (µg/mL)) [1]: -1.46
- Log IC50 of inhibition of cell proliferation, antibody alone (Ba/F3-TPOR/mutCALR type 1 cells) (Log IC50 (µg/mL)) [1]: -0.438
- IC50 of inhibition of MPL-LgBiT/MPL-smBiT dimerization (NanoBiT luminescence, percent of isotype) in transfected HAP1 JAK2-knockout cells [4]: 8.89 ng/mL
B5: anti-mutCALR antibody clone 74 (antibody, human IgG1, lambda, N297A, V domains shown)
VH: B2 VH with E55D, G56A, R84S, T87R, L93V
VL: B2 VL

- IC50 of inhibition of cell proliferation (BaF3 cells expressing MPL/mutCALR Type 1) [1]: > 60000 ng/mL
B10: AB2: anti-mutCALR antibody including VH and VL regions of antibody B3 from WO2020175689 fused to human constant regions (antibody, human IgG1, kappa, V domains shown)
VH: QVQLQQSGAELVKPGSSVKISCKASGYTFTRNFIHWIKQQPGNGLEWIGWIFPGDGDTEYNQKFNGKATLTADKSSSTAYMQLSSLTSEDSAVYFCARGNYNYEYFDYWGQGVMVTVSS
VL: DIQMTQSPASLSASLGETVSIECLASEDIYSYLAWYQQKPGKSPQLLIFAANRLQDGVPSRFSGSGSGTQFSLKISGMQPEDEGDYFCLQGSKFPYTFGPGTKLELNR
